Experiments:
[1] = biological target: biotinylated Monomer MHC (HLA-A* 02:01 SLC45A2 (Biolegend, Custom Product, … (SEQ ID NO: 2)) (human)); assay: flow cytometry of stained beads, calibrated; divided by the nominal bead surface area
[2] = biological target: biotinylated Monomer MHC (HLA-A* 02:01 SLC45A2 (Biolegend, Custom Product, … (SEQ ID NO: 2)) (human)); assay: flow cytometry of stained beads, calibrated; divided by the bead surface area
[3] = biological target: costimulation antibodies on the antigen presenting beads (biotinylated anti-CD28 and biotinylated anti-CD2); assay: flow cytometry of stained beads, calibrated; divided by the nominal bead surface area
[4] = biological target: costimulation antibodies on the antigen presenting beads (biotinylated anti-CD28 and biotinylated anti-CD2); assay: flow cytometry of stained beads, calibrated; divided by the bead surface area
[5] = biological target: costimulation antibodies on the antigen presenting beads (biotinylated anti-CD28 and biotinylated anti-CD2); assay: flow cytometry of stained beads, APC intensity calibrated with Quantum Simply Cellular beads; assumes 1 detection antibody per costimulation antibody
[6] = biological target: Biotinylated peptide-Human Leukocyte Antigen complexes (pMHC); assay: flow cytometry of stained beads, APC MFI calibrated with Quantum Simply Cellular beads; silica bead
[7] = biological target: Biotinylated peptide-Human Leukocyte Antigen complexes (pMHC); assay: flow cytometry of stained beads, APC MFI calibrated with Quantum Simply Cellular beads; polymeric bead

Substance: APC-conjugated anti-HLA-A (Biolegend, Catalog Number 343308) (antibody)
- pMHC Density (molecules/sq micron) [1]: 19800
- pMHC Density (molecules/sq micron) [2]: 14800

Substance: APC-conjugated monoclonal anti-Mouse-IgG1 (Biolegend, Catalog Number 406610) (antibody)
- Costimulation Antibody Density (molecules/sq micron) [3]: 17300
- Costimulation Antibody Density (molecules/sq micron) [4]: 15600
- Costimulation antibodies/bead (anti-Mouse IgG1 antibodies bound per bead) (antibodies/bead) ([5]; M-280 convoluted polymer beads): 427000
- Costimulation antibodies/bead (anti-Mouse IgG1 antibodies bound per bead) (antibodies/bead) ([5]; substantially spherical silica beads): 845000

Substance: anti-HLA-A conjugated to APC (Clone BB7.2, Biolegend) (antibody)
- Ligands/Bead (detection antibodies bound per bead) [6]: 604000 Ligands/Bead
- Ligands/sq um (Ligands/sq um) [6]: 12000
- Ligands/Bead (detection antibodies bound per bead) [7]: 487000 Ligands/Bead
- Ligands/sq um (Ligands/sq um) [7]: 19800
